According to US20240425885:

Assays:
Assay in all cases: cleavage_in_vitro
[1] = test system: T1, OMNI-95 (metagenomic, unknown); settings: TXTL; PAM NNGYAANN
T1 sequence: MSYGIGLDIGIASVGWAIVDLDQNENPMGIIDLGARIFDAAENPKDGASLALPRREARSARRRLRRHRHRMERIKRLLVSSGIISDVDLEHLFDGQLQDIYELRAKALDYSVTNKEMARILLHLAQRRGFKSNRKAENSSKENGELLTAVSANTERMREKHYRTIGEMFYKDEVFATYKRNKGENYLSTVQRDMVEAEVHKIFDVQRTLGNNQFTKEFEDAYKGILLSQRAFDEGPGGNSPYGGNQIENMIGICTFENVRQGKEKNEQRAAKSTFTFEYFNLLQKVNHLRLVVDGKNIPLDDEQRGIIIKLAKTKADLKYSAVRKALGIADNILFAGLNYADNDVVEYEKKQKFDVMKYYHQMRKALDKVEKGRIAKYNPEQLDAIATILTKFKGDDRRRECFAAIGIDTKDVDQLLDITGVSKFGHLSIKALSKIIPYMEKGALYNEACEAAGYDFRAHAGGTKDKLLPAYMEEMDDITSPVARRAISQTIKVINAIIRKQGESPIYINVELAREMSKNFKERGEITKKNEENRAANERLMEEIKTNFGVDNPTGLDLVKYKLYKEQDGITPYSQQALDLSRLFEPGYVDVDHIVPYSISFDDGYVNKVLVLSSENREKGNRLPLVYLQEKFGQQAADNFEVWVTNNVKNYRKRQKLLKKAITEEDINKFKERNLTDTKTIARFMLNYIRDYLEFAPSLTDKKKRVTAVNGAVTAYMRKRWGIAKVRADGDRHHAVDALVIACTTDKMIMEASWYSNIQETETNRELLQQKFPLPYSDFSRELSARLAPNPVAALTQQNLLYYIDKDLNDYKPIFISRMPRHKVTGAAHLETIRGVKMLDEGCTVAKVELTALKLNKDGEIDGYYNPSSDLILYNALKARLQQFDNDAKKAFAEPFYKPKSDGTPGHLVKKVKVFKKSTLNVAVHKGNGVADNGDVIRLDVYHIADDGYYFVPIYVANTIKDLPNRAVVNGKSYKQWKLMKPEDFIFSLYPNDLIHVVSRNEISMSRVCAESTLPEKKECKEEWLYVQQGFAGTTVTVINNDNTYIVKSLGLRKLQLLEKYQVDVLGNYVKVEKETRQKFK

[2] = test system: T2, OMNI-94 (metagenomic, unknown); settings: TXTL; PAM NNRRAYGN
T2 sequence: T1 sequence

[3] = test system: T3, OMNI-138 (metagenomic, unknown); settings: TXTL; PAM NNNNGTKA
T3 sequence: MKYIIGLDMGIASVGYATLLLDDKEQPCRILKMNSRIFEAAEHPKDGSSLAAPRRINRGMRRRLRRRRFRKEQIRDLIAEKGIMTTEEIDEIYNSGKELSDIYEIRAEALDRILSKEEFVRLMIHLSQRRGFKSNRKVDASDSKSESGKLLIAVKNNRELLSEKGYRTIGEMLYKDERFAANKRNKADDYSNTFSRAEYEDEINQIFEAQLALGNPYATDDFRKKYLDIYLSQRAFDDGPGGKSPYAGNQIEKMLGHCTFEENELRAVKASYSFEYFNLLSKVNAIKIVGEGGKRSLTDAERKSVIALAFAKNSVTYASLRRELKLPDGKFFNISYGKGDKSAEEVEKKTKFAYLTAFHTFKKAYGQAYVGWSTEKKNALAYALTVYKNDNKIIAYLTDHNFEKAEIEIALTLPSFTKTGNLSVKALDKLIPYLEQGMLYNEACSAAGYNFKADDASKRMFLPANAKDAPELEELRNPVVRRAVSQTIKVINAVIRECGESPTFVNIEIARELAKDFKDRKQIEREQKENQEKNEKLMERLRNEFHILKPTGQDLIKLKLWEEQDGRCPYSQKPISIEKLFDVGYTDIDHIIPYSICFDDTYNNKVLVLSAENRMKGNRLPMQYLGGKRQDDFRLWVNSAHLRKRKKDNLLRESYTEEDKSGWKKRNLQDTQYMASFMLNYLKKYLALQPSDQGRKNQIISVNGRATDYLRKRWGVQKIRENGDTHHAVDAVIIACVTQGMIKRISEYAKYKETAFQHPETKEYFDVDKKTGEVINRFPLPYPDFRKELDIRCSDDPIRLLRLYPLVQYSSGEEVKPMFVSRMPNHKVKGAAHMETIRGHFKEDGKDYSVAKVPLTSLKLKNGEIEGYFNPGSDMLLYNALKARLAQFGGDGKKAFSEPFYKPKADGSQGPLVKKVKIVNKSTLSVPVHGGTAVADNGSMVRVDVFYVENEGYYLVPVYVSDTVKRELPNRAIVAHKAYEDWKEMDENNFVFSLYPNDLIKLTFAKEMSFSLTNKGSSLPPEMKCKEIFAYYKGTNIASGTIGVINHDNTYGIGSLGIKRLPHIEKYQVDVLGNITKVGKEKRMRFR

[4] = test system: T4, OMNI-137 (metagenomic, unknown); settings: TXTL; PAM NNRCRGNN
T4 sequence: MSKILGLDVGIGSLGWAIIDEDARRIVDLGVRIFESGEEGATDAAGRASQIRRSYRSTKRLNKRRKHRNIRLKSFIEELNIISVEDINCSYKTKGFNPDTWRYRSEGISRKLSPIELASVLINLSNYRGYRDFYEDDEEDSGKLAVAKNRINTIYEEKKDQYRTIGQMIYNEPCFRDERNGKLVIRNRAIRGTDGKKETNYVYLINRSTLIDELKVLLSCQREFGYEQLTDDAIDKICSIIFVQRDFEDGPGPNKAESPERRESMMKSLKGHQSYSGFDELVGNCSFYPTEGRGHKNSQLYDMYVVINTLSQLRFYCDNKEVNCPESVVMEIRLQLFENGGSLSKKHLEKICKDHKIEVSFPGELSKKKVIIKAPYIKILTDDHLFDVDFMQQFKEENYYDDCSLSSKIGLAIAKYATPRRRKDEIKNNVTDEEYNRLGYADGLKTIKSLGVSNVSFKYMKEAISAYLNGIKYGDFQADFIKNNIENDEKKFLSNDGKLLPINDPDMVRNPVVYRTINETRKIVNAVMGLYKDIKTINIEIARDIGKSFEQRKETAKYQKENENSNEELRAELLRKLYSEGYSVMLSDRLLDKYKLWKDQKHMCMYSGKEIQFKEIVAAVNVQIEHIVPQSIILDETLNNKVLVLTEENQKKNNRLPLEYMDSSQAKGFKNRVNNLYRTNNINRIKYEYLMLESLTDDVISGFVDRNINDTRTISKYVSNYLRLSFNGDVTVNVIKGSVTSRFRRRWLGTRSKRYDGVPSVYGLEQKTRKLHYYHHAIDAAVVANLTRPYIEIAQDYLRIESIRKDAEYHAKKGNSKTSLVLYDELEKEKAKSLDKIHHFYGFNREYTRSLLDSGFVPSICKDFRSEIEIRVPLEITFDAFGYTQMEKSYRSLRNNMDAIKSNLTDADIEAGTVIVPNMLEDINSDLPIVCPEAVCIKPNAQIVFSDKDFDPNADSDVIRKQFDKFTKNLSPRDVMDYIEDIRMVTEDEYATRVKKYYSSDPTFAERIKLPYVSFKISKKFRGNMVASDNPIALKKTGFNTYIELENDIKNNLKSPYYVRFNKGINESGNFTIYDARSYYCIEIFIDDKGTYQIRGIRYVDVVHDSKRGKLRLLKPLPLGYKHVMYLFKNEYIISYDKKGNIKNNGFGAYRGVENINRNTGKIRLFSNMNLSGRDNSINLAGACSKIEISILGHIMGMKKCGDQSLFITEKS

## GGAAGAGCAGAGCCUUGGUCUCAUUUUAGUACCUGGAGAAAGAAAUUUCUUCAGACCUACUAAAACAAGGCUUUAUGCCGAAAGUUUUUUUGAUUUGAAUUGAAUGAGUUGAAAGAGGAUGCCGACGGGUGUCCUCUUUUUUU / GGAAGAGCAGAGCCTTGGTCTCNNNNNNNN / NNNNNNNNGAGACCAAGGCTCTGCTCTTCC [T2 sgRNA 6 V1 ; T2 protospacer + 8N PAM library (pbPOS T2)]
[1]
  activity (1-depletion score): 0.77

## GGAAGAGCAGAGCCUUGGUCUCGUUGUAGCUCCCUGUUAAUGAAAACUAACAGGUUACUACAAUAAGGUCUUAGGACCGCAAAGCUCUAUCGCCCUACAUCCGUAGGGCGAUAUCUUUUUAUACAUUUUUU / GGAAGAGCAGAGCCTTGGTCTCNNNNNNNN / NNNNNNNNGAGACCAAGGCTCTGCTCTTCC [T2 sgRNA 5 V1 ; T2 protospacer + 8N PAM library (pbPOS T2)]
[2]
  activity (1-depletion score): 0.69

## GGAAGAGCAGAGCCUUGGUCUCGUUGUAGUUCCCUAAUUAUGAAAACAAUUAGGUUACUAUGAUAAGGUAGUAUACCGCAAAGCUCUAACGCCUCAUCUUAAUGAUGGGGCGUUAUCUUUUUU / GGAAGAGCAGAGCCTTGGTCTCNNNNNNNN / NNNNNNNNGAGACCAAGGCTCTGCTCTTCC [T2 sgRNA 38 V1 ; T2 protospacer + 8N PAM library (pbPOS T2)]
[3]
  activity (1-depletion score): 0.97

## GGAAGAGCAGAGCCUUGGUCUCGUUUUAGUUCUCGGACGAAAGUCCGAGAAUCUAAGAUAAAGCUAUAUGCUGUGGGGUUGCGUAUCCCCUUAUCGAACGUACUAAGAUGAGUUUCGGCUCAUCUUUUUU / GGAAGAGCAGAGCCTTGGTCTCNNNNNNNN / NNNNNNNNGAGACCAAGGCTCTGCTCTTCC [T2 sgRNA 37 V1 ; T2 protospacer + 8N PAM library (pbPOS T2)]
[4]
  activity (1-depletion score): 0.97
